Source: US11957698B2, “Synergistic combination of thermolysin and an antibacterial agent to reduce or eliminate bacterial biofilms from surfaces” (SMITH & NEPHEW, INC., priority 2017, dated 2024)

Columns and labels:
Type in all cases: cell-based
S. aureus ATCC 29213 = assay: Minimum inhibitory concentration (MIC) in bacteria suspension; conditions: for MIC values: thermolysin, where present, kept constant at 50 μg/mL
Protocol: (§1) The concentration of thermolysin in the MIC experiments was kept constant at 50 μg/mL.

P. aeruginosa ATCC 27312 = assay: as above; conditions: for MIC values: thermolysin, where present, kept constant at 50 μg/mL
Protocol: as §1

[1] = test system: S. aureus ATCC 6538 bacterial biofilm; assay: In-vitro gram-positive bacterial biofilm study, 96 well plate, crystal violet staining; conditions: concentrations of 0.00001 mg/mL-10 mg/mL, 16 hours, FIG. 1
Protocol: An in-vitro assay was performed to determine the bacterial biofilm reduction capabilities of thermolysin and collagenase on gram-positive bacterial biofilms. In this assay, S. aureus ATCC 6538 was suspended in a growth media of tryptic soy broth supplemented with 0.25% glucose for optimal bacterial biofilm formation. The suspension was transferred to the wells of sterile 96 well plates and incubated for 22 hours at 37° C. with one change of media. After formation of the bacterial biofilm, the growth media was replaced with solutions of thermolysin dissolved in growth media at various concentrations in some wells and replaced with solutions of collagenase dissolved in growth media at the same concentrations in other wells (enzyme concentrations were 0.000001 mg/mL, 0.00001 mg/mL, 0.0001 mg/mL, 0.001 mg/mL, 0.01 mg/mL, 0.1 mg/mL, 1.0 mg/mL, and 10 mg/mL). After 16 hours, the remaining attached bacteria were quantified by aspirating the enzyme solutions (enzyme+growth media) and washing the plate thoroughly followed by crystal violet staining and recording the absorbance at 570 nm. A growth media control without enzyme was also tested. The crystal violet binds to negative charges on the remaining attached bacteria and the EPS. A decreased absorbance compared to the Control indicates a reduction of attached bacteria meaning a reduction of the bacterial biofilm occurred.

[2] = test system: P. aeruginosa ATCC 15442 bacterial biofilm; assay: In-vitro gram-negative bacterial biofilm study, 96 well plate, crystal violet staining; conditions: 18 hours at 37° C., FIG. 2
Protocol: An in-vitro assay was performed to determine the bacterial biofilm reduction capabilities of thermolysin and collagenase on gram-negative bacterial biofilms. In this assay P. aeruginosa ATCC 15442 was suspended in a growth media of 10% tryptic soy broth in PBS supplemented with 0.45% glucose (TSBG). The suspension was transferred to the wells of sterile 96 well plates and incubated for 18 hours at 37° C., then the media was changed with fresh media and incubated an additional 8 hours at 37° C. After formation of the bacterial biofilm, the growth media was replaced with solutions of thermolysin dissolved in TSBG growth media at various concentrations in some wells and replaced with solutions of collagenase dissolved in growth media at the same concentrations in other wells (enzyme concentrations were 0.00001 mg/mL, 0.0001 mg/mL, 0.001 mg/mL, 0.01 mg/mL, 0.1 mg/mL, 1.0 mg/mL, and 10 mg/mL). After 18 hours at 37° C., the remaining attached bacteria were quantified by removing the enzyme solutions (enzyme+TSBG growth media) and washing the plate thoroughly followed by crystal violet staining and recording the absorbance at 570 nm. A growth media control without enzyme was also tested. […] A decreased absorbance compared to the Control indicates a reduction of attached bacteria meaning a reduction of the bacterial biofilm occurred.

Molecule | MIC values (S. aureus ATCC 29213; Rep 1) [µg/mL] | MIC values (S. aureus ATCC 29213; Rep 2) [µg/mL] | MIC values (P. aeruginosa ATCC 27312; Rep 1) [µg/mL] | MIC values (P. aeruginosa ATCC 27312; Rep 2) [µg/mL] | effect of the addition of thermolysin on the MIC of gentamicin sulfate (S. aureus ATCC 29213; thermolysin 50 μg/mL) | effect of the addition of thermolysin on the MIC of gentamicin sulfate (P. aeruginosa ATCC 27312; thermolysin 50 μg/mL) | effect in reducing the bacterial biofilm (crystal violet absorbance at 570 nm vs growth media control) [1] | effect in reducing the bacterial biofilm (crystal violet absorbance at 570 nm vs growth media control) ([2]; concentrations of 0.00001 mg/mL-0.01 mg/mL) | effect in reducing the bacterial biofilm (crystal violet absorbance at 570 nm vs growth media control) ([2]; concentrations of 0.1 mg/mL-10 mg/mL)
gentamicin sulfate | 1.6 | 1.6 | 50 | 50 | – | – | – | – | –
thermolysin (protein, UniProt P00800 233-548, looked up) Thermolysin: ITGTSTVGVGRGVLGDQKNINTTYSTYYYLQDNTRGNGIFTYDAKYRTTLPGSLWADADNQFFASYDAPAVDAHYYAGVTYDYYKNVHNRLSYDGNNAAIRSSVHYSQGYNNAFWNGSQMVYGDGDGQTFIPLSGGIDVVAHELTHAVTDYTAGLIYQNESGAINEAISDIFGTLVEFYANKNPDWEIGEDVYTPGISGDSLRSMSDPAKYGDPDHYSKRYTGTQDNGGVHINSGIINKAAYLISQGGTHYGVSVVGIGRDKLGKIFYRALTQYLTPTSNFSQLRAAAVQSATDLYGSTSQEVASVKQAFDAVGVK | – | – | – | – | did not affect the MIC | did not affect the MIC | had an effect in reducing the bacterial biofilm | little effect | no effect
